Target: recombinant VE-cadherin-Fc (UniProt P33151)
Experiment: atomic force microscopy

binding activity (binding probability by AFM): 61%
Substance: recombinant VE-cadherin-Fc (from UniProt P33151) (Fc fusion)

— PMC10563049
